This passage reports IC50 and EC50 results from US20250313635A1 (Merck Sharp & Dohme, published 2025).

Assay [1] has as its target T1, recombinant mouse αvβ3 integrin extracellular domains (mouse, UniProt P43406 1-988; O54890 1-717, Biotinylated on the Avitag (tag not in the letters); interchain disulfide between the coiled-coils (not in the letters).).
T1 construct: Soluble heterodimer co-expressed in Expi293 cells; also called mαvβ3
The experiment in a line: AlphaLISA blocking of mouse vitronectin binding. The method, then:
(§1) Briefly, the testing antibody (8 μL) was added as a 4×(of Final testing concentration) solution in the HEPES buffer described previously into a 384w AlphaPlate™ (Perkin Elmer #6005350). Then the integrin and ligand were added sequentially as 8×(4 μL each). Plates were sealed and incubated at room temperature for two hours. Then 4×acceptor bead solution ([…]) was added, and the plates were resealed and incubated at room temperature (RT) for one hour. Finally, 4×([…]) donor beads solution was added in a darkened room and incubated for 45 minutes at room temperature. Plates were read on the Envision (Perkin Elmer) in AlphaScreen™ mode within three hours of donor bead addition.

For assay [2], the target named is T2, human αvβ6 integrin on CHOK1 stable cells (human, UniProt P06756 31-1048; P18564 22-788).
T2 construct: whole, on cells; Stably expressed on CHOK1 cells; also called hαvβ6; CHOK1-human αvβ6
Put plainly: cell-based ELISA (CELISA), CHOK1 cells expressing the integrin. The method, then:
(§2) Integrin cell-based ELISA (CELISA) assay. Cell binding EC₅₀ data for antibodies were obtained for CHOK1 parental cells and CHOK1 cells expressing human or mouse αvβ1, αvβ6, and αvβ1 integrins by cell-based ELISA. Three days prior to the assay cells were seeded at 10,000 cells per well in 100 μL/well of media in Falcon 96-well Flat-Bottom Tissue Culture Plates (REF 353916), resulting in an even cell monolayer in each well on the day of the assay. On the day of the assay, media was removed from the cells and a fivefold titration of primary antibodies was added at concentrations ranging from 0 to 200 nM in TBSF+MnCl₂ buffer (25 mM Tris, 0.15 M NaCl, 0.1% BSA, 0.5 mM MnCl₂, pH 7.5). Cells incubated with primary antibody solution for 1 hour at room temperature. […] After 30 minutes of incubation at room temperature, secondary antibody was removed, and cells were washed twice with 150 μL/well of 1×DPBS+Tween 20. Then 50 μL/well of TMB substrate (1-Step Ultra TMB-ELISA, Thermo Scientific, #34028) was added, incubated with cells at room temperature, and 50 μL/well of TMB stop solution (Seracare, #KPL 50-85-05) was then added after five minutes. Absorbance was read on a TECAN plate reader at 450 nm, with a 620 nm reference wavelength.
A general note: An ELISA detects its analyte on a solid surface through an enzyme-linked reagent.

For assay [3], the target named is T3, mouse αvβ1 integrin on CHOK1 stable cells (mouse, UniProt P43406 31-1044; P09055 21-798).
T3 construct: whole, on cells; Stably expressed on CHOK1 cells; the adhesion assay used the line with the hamster α5 gene knocked out (CHOK1-α5KO-mαvβ1); also called mαvβ1; CHOK1-mouse αvβ1
The description is as above. The method, then: as §2

In assay [4] the target is T4, mouse α5β1 integrin on CHOK1 stable cells (mouse, UniProt P11688 45-1053; P09055 21-798).
T4 construct: whole, on cells; Stably expressed on CHOK1 cells; also called mα5β1; CHOK1-mouse α5β1
Described as above. The method, then: as §2

Assay [5] concerns the target T5, human αvβ1 integrin on CHOK1 stable cells (human, UniProt P06756 31-1048; P05556 21-798).
T5 construct: whole, on cells; Stably expressed on CHOK1 cells; also called hαvβ1; CHOK1-human αvβ1
The description is as above. As to the method: as §2

For assay [6], the target named is T6, human α5β1 integrin on CHOK1 stable cells (human, UniProt P08648 42-1049; P05556 21-798).
T6 construct: whole, on cells; Stably expressed on CHOK1 cells; also called hα5β1; CHOK1-human α5β1
The assay is described as above. The method, then: as §2

Assay [7] deals with T7, mouse αvβ6 integrin on CHOK1 stable cells (mouse, UniProt P43406 31-1044; Q9Z0T9 22-787).
T7 construct: whole, on cells; Stably expressed on CHOK1 cells; also called mαvβ6; CHOK1-mouse αvβ6
The assay is described as above. The method, then: as §2

The target in assay [8] is T8, recombinant mouse αvβ6 integrin extracellular domains (mouse, UniProt P43406 1-988; Q9Z0T9 1-706, Biotinylated on the Avitag (tag not in the letters); interchain disulfide between the coiled-coils (not in the letters).).
T8 construct: Soluble heterodimer co-expressed in Expi293 cells; also called mαvβ6
The experiment in a line: AlphaLISA blocking of mouse LAP-6His binding. The method, then:
as §1
A general note: In Alpha technology, singlet oxygen from a donor bead excites a nearby acceptor bead.

Assay [9] deals with T9, recombinant human αvβ3 integrin extracellular domains (human, UniProt P06756 1-992; P05106 1-718, Secreted glycoprotein heterodimer. It is biotinylated on the omitted Avitag, and an interchain disulfide sits in the omitted coiled-coils.).
T9 construct: Soluble heterodimer co-expressed in Expi293 cells; also called hαvβ3; not shown: Alpha chain: acidic coiled-coil with cysteine and GG-Avitag; Beta chain: basic coiled-coil with cysteine and GG-Avitag
The experiment in a line: AlphaLISA blocking of human vitronectin-GST binding.

For assay [10], the target named is T10, recombinant human αvβ5 integrin extracellular domains (human, UniProt P06756 1-992; P18084 1-719, Secreted glycoprotein heterodimer. It is biotinylated on the omitted Avitag, and an interchain disulfide sits in the omitted coiled-coils.).
T10 construct: Soluble heterodimer co-expressed in Expi293 cells; also called hαvβ5; not shown: Alpha chain: acidic coiled-coil with cysteine and GG-Avitag; Beta chain: basic coiled-coil with cysteine and GG-Avitag
The assay is described as above.

Assay [11] has as its target T11, recombinant human α5β1 integrin extracellular domains (human, UniProt P08648 1-995; P05556 1-728, Biotinylated on the Avitag (tag not in the letters); interchain disulfide between the coiled-coils (not in the letters).).
T11 construct: Soluble heterodimer co-expressed in Expi293 cells; also called hα5β1
Put plainly: AlphaLISA blocking of human fibronectin binding.

Assay [12] concerns the target T12, recombinant human αvβ1 integrin extracellular domains (human, UniProt P06756 1-992; P05556 1-728, Secreted glycoprotein heterodimer. It is biotinylated on the omitted Avitag, and an interchain disulfide sits in the omitted coiled-coils.).
T12 construct: Soluble heterodimer co-expressed in Expi293 cells; also called hαvβ1; not shown: Alpha chain: acidic coiled-coil with cysteine and GG-Avitag; Beta chain: basic coiled-coil with cysteine and GG-Avitag
Put plainly: AlphaLISA blocking of human fibronectin binding.

By IC50 is commonly meant the midpoint of a concentration-inhibition curve. As usually defined, the EC50 is the concentration giving half of the maximal effect. Low values mean a more potent agent, high ones a less potent agent.

T7 sequence (P43406 31-1044, chain 1 of 2): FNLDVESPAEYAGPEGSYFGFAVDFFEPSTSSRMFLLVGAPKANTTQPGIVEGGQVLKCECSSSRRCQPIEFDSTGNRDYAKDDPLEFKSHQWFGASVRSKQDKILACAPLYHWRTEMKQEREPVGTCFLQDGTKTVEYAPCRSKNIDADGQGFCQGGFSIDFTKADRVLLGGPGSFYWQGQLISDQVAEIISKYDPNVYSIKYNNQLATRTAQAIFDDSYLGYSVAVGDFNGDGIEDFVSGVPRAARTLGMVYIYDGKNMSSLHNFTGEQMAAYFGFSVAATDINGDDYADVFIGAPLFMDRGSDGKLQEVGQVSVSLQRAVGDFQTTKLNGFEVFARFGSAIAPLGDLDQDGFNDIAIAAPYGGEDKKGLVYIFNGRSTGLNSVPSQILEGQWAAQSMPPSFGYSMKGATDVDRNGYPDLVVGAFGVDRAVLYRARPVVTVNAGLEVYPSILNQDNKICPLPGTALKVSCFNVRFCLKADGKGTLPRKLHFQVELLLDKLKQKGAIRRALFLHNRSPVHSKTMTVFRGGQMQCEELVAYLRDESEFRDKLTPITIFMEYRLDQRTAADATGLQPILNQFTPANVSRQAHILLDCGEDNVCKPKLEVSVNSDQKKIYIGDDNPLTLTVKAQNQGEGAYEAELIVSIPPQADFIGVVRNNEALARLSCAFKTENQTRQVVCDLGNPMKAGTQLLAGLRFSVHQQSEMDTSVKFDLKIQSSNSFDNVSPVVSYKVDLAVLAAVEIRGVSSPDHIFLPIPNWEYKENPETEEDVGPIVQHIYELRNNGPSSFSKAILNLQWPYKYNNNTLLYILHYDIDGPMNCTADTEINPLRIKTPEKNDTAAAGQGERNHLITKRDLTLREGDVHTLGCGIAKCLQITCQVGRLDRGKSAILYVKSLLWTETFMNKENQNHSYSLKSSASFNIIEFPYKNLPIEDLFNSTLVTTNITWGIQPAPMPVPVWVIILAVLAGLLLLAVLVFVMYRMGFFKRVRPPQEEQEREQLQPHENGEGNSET
T7 sequence (Q9Z0T9 22-787, chain 2 of 2): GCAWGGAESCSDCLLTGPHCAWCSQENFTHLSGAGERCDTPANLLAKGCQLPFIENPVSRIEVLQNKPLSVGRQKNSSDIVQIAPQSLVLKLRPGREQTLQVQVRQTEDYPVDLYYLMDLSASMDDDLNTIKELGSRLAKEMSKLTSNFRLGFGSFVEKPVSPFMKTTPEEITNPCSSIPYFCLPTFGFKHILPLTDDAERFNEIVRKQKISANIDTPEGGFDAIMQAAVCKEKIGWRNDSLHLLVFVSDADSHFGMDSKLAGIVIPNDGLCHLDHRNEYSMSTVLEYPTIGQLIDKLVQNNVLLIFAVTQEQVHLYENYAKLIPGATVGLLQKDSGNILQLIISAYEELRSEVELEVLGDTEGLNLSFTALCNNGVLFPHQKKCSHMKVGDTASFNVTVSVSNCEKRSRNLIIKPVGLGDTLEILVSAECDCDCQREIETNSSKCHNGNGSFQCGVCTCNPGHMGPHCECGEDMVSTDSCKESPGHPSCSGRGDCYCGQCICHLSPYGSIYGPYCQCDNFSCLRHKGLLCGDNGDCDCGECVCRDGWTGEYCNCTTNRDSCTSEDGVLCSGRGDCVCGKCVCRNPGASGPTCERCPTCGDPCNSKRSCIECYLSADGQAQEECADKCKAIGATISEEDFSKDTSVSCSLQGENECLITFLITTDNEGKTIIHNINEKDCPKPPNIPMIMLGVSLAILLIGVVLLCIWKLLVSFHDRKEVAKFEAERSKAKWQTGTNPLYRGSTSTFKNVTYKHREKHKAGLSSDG
T3 sequence (P43406 31-1044, chain 1 of 2): as the sequence (P43406 31-1044, chain 1 of 2) above
T3 sequence (P09055 21-798, chain 2 of 2): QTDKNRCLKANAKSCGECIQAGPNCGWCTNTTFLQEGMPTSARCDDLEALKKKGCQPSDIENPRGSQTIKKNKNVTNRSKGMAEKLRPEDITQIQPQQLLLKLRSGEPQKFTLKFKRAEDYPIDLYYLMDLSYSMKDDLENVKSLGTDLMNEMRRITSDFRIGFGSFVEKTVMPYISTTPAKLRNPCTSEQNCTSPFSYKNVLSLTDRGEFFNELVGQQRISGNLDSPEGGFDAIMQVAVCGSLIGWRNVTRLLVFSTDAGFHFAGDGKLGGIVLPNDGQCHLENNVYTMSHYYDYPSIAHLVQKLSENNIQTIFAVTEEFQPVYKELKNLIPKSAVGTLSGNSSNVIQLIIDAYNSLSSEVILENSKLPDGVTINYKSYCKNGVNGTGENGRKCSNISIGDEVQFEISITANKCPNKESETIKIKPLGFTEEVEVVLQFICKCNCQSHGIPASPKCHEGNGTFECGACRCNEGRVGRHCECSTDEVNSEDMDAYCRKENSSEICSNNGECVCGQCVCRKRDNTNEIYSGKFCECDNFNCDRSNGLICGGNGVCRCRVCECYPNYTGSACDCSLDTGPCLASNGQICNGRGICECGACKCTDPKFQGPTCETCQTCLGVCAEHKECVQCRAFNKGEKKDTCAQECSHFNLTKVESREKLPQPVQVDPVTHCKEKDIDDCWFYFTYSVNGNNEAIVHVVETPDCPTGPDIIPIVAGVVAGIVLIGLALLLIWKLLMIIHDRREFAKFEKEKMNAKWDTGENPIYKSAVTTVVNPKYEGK
T1 sequence (P43406 31-988 limits assumed, form in doubt, chain 1 of 2): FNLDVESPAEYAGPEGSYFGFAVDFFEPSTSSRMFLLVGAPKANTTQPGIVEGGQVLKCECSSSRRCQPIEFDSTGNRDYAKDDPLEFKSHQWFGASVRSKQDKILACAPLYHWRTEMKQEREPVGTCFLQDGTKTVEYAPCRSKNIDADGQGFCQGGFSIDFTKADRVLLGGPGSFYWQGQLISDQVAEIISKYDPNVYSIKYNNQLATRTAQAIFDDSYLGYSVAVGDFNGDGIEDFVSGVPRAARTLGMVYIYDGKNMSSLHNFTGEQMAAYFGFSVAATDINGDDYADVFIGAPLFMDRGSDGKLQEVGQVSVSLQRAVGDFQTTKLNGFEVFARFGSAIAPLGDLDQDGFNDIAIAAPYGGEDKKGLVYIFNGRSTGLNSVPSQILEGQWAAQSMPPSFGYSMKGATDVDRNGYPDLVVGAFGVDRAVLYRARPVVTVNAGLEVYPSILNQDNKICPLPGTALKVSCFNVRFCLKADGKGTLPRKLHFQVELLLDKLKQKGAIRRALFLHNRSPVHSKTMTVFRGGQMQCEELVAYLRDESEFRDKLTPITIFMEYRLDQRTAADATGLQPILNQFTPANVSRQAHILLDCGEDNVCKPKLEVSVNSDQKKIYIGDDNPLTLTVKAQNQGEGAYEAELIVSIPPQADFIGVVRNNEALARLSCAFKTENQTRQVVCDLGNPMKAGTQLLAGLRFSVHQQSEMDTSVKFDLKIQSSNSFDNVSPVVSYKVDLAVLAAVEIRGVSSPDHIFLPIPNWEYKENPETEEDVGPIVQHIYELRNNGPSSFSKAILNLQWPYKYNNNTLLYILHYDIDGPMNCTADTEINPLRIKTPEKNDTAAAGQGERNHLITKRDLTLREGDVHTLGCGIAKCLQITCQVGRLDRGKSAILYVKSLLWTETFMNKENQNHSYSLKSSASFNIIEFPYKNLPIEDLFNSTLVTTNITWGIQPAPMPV
T1 sequence (O54890 26-717 limits assumed, form in doubt, chain 2 of 2): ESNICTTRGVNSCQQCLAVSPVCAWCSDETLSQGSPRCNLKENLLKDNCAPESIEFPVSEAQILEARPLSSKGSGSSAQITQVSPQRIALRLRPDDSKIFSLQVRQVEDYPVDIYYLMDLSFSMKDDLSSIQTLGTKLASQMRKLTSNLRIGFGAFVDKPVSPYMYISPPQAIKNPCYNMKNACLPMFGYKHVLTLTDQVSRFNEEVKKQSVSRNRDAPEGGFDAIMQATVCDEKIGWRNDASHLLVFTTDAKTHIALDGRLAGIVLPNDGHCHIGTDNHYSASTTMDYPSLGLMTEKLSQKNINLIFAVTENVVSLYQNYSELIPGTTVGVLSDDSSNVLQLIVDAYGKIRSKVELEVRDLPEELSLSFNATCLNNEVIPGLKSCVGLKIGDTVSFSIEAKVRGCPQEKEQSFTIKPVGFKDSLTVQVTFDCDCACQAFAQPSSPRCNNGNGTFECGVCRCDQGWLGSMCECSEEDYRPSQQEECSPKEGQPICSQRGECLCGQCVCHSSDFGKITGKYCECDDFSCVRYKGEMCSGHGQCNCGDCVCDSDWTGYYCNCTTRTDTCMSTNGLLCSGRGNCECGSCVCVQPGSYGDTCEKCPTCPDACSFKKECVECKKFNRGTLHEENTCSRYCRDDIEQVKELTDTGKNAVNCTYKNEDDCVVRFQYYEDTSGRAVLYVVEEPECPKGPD
T8 sequence (P43406 31-988 limits assumed, form in doubt, chain 1 of 2): as the sequence (P43406 31-988 limits assumed, form in doubt, chain 1 of 2) above
T8 sequence (Q9Z0T9 22-706 limits assumed, form in doubt, chain 2 of 2): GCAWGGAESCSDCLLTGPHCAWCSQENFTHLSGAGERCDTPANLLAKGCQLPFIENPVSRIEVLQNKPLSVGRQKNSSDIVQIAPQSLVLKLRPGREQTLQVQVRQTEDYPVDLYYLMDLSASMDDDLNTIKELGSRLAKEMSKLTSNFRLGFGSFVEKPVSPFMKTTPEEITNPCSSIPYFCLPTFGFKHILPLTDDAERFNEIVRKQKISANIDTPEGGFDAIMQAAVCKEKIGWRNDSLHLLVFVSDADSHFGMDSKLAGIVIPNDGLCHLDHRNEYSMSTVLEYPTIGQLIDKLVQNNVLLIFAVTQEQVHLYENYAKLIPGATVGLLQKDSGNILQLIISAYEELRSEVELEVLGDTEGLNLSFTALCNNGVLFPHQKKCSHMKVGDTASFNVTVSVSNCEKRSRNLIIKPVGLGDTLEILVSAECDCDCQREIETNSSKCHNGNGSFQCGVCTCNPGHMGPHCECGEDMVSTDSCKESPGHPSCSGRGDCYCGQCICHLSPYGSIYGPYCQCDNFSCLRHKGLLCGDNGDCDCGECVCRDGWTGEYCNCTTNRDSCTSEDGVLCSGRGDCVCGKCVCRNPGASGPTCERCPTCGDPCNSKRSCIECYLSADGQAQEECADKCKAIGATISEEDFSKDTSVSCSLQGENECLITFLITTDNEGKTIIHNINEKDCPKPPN

B1: Ab-29 (antibody, V domains shown)
VH: ELQLQESGPGLVKPSETLSLTCTVSGGSISSNSYYWGWIRQPPGKGLEWIGSIYYSGSTYYNPSLKSRVTISVDTSKNQFSLKLSSVTAADTAVYYCARVRRVAGRGDSYYYYYGMDVWGQGTTVTVSS
VL: DIQMTQSPSSVSASVGDRVTITCRASQGISRWLAWYQQKPGKAPKLLIYAASSLQSGVPSRFSGSGSGTDFTLTISSLQPEDFATYYCQQAISHPWTFGGGTKVEIK
Take B1: the concentration for half-maximal inhibition (IC50) stood at 3.4 nM in [1]; 26.3 nM in assay [8]; 1.16 nM in assay [9]; 14.8 nM in assay [10]; 9.46 nM in assay [11]; 2.57 nM in assay [12]. The concentration for a half-maximal effect (EC50) in assay [2] is 0.861 nM; in assay [3], 1.09 nM; in assay [4], 0.213 nM; in assay [5], 0.198 nM; in assay [6], 0.166 nM; in assay [7] it was 0.285 nM.

B2: Ab-31 (antibody, V domains shown)
VH: EVQLQESGPGLVKPSETLSLTCAVSGYSISSGYYWGWIRQPPGKGLEWIGSIYHSGNTYYNPSLKSRVTISVDTSKNQFSLKLSSVTAADTAVYYCARVPRYSRGDAYYYYGMDVWGQGTTVTVSS
VL: DIQMTQSPSTLSASVGDRVTITCRASQSIGSWLAWYQQKPGKAPKLLIYKASSLESGVPSRFSGSGSGTEFTLTISSLQPDDFATYYCQQSGPYPWTFGGGTKVEIK
B2: the IC50 in [1] was 3.2 nM; in [8], 17.7 nM; in assay [9], 0.94 nM; in [10], 31.7 nM; in assay [11], 47.3 nM; in assay [12], 2.26 nM. Also, the half-maximal effective concentration (EC50) is 0.483 nM in assay [2]; 0.743 nM in [3]; 1.76 nM in assay [4]; 0.32 nM in assay [5]; 1.22 nM in [6]; 0.64 nM in assay [7].

B3: Ab-30 (antibody, V domains shown)
VH: EVQLQESGPGLVKPSETLSLTCAVSGYSISSGYYWGWIRQPPGKGLEWIGSIYHSGNTYYNPSLKSRVTISVDTSKNQFSLKLSSVTAADTAVYYCARVPRYSRGDAYYYYGMDVWGQGTTVTVSS
VL: DIQMTQSPSTLSASVGDRVTITCRASQSISSWLAWYQQKPGKAPKLLIYKASSLESGVPSRFSGSGSGTEFTLTISSLQPDDFATYYCQQVKIYPPYTFGGGTKVEIK
Turning to B3, the IC50 in assay [1] came out at 4.2 nM; in [8], 23.2 nM; in assay [9], 1.24 nM; in assay [10] it was 53.5 nM; in [11] it was 43.1 nM; in assay [12], 3.15 nM. Further, the concentration for a half-maximal effect (EC50) in assay [2] was 0.323 nM; in [3] it was 0.593 nM; in assay [4], 0.03 nM; in assay [5], 0.23 nM; in assay [6], 0.495 nM; in assay [7] it was 0.335 nM.

B4: Ab-33 (antibody, V domains shown)
VH: EVQLVQSGAEVKKPGSSVKVSCKASGGTFSNYAISWVRQAPGQGLEWMGGIIPIFGTANYAQKFQGRVTITADESTSTAYMELSSLRSEDTAVYYCARAPRSARGDMYYYYYGMDVWGQGTTVTVSS
VL: DIQMTQSPSTLSASVGDRVTITCRASQSIGSWLAWYQQKPGKAPKLLIYKASSLESGVPSRFSGSGSGTEFTLTISSLQPDDFATYYCQQYGRYPWTFGGGTKVEIK
Turning to B4, the IC50 in [1] is 9.2 nM; in assay [8], 6.6 nM; in [9], 1.28 nM; in [10], 22.3 nM; in assay [11] it was 31.1 nM; in assay [12], 1.27 nM. Besides, the half-maximal effective concentration (EC50) was 0.417 nM in assay [2], 2.84 nM in assay [3], 0.702 nM in [5] and 2.84 nM in assay [7].

B5: Ab-32 (antibody, V domains shown)
VH: EVQLQESGPGLVKPSETLSLTCAVSGYSISSGYYWGWIRQPPGKGLEWIGSIYHSGNTYYNPSLKSRVTISVDTSKNQFSLKLSSVTAADTAVYYCARVPRYSRGDAYYYYGMDVWGQGTTVTVSS
VL: EIVLTQSPGTLSLSPGERATLSCRASQSVRSSYLAWYQQKPGQAPRLLIYGASSRATGIPDRFSGSGSGTDFTLTISRLEPEDFAVYYCQQAGLVFTFGGGTKVEIK
For the molecule B5, the IC50 in assay [1] turned out to be 4.3 nM; in [8] it was 17.1 nM; in assay [9], 1.03 nM; in assay [10], 26 nM; in assay [11] it was 34.1 nM; in assay [12], 2.41 nM. Also, the EC50 stood at 0.438 nM in assay [2]; 0.609 nM in assay [3]; 0.131 nM in [4]; 0.335 nM in assay [5]; 0.597 nM in assay [6]; 0.508 nM in [7].
